This data set in a line: self-splicing fitness, log relative to wild type (ln ratio); higher = more splicing; Tetrahymena group I intron in knt gene, E. coli kanamycin selection, DiMSum; sequences stand for … in CUCUCU…GGAGGGAAAAGUUAUCAGGCAUGCACCUGGUAGCUAGUCUUUAAACCAAUAGAUUGCAUCGGUUUAAAAGGCAAGACCGUCAAAUUGCGGGAAAGGGGUCAACAGCCGUUCAGUACCAAGUCUCAGGGGAAACUUUGAGAUGGCCUUGCAAAGGGUAUGGUAAUAAGCUGACGGACAUGGUCCUAACCACGCAGCCAAGUCCUAAGUCAACAGAUCUUCUGUUGAUAUGGAUGCAGUUCACAGACUAAAUGUCGGUCGGGGAAGAUGUAUUCUUCUCAUAAGAUAUAGUCGGACCUCUCCUUAAUGGGAGCUAGCGGAUGAAGUGAUGCAACACUGGAGCCGCUGGGAACUAAUUUGUAUGCGAAAGUAUAUUGAUUAGUUUUGGAGUACUCGUGGUCG
In outline: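 Pooled colonies went to amplicon sequencing on an Illumina HiSeq 2500 after six replicate transformations. The plates were LB agar with 100 μg/mL carbenicillin, 50 μM IPTG and 0.2% rhamnose, with or without 25 μg/mL kanamycin, incubated overnight at 37°C or 30°C. The E. coli BL21(DE3) library had all eight P1ex-region intron nucleotides randomised, the intron placed in the knt kanamycin-resistance gene on pET-22b(+). DiMSum fitness is the error-weighted combination of replicate fold changes, kanamycin against none, normalised to wild type.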

± gives the uncertainty stated by the source.

ACGUAGCAAUAUUACGAAGU: the “self-splicing fitness (ln)” value reads like this: (30 °C) -2.97 ± 0.2; (37 °C) -2.86 ± 0.21.

Regarding AUGUAGCAAUAUUACGGUGC, the “self-splicing fitness (ln)” value (30 °C) is -2.55 ± 0.3.

For GCAAAGCAAUAUUACGCGGU, the “self-splicing fitness (ln)” value by setting is: (30 °C) -4.16 ± 0.22; (37 °C) -2.67 ± 0.24.

Turning to AAGCAGCAAUAUUACGUGAU, the “self-splicing fitness (ln)” value (30 °C) is -2.39 ± 0.081 and the “self-splicing fitness (ln)” value (37 °C) was -1.49 ± 0.11.

Regarding GGCCAGCAAUAUUACGUCUC, the “self-splicing fitness (ln)” value is, setting by setting: (30 °C) -1.1 ± 0.089; (37 °C) -0.447 ± 0.12.

GUAGAGCAAUAUUACGGGAA: the “self-splicing fitness (ln)” value was -3.56 ± 0.32 (30 °C) and -2.35 ± 0.26 (37 °C).

For UAUCAGCAAUAUUACGCUUG, the “self-splicing fitness (ln)” value (30 °C) is -0.489 ± 0.098 and the “self-splicing fitness (ln)” value (37 °C) was 0.0735 ± 0.12.

Turning to AGUAAGCAAUAUUACGAAAA, the “self-splicing fitness (ln)” value by setting is: (30 °C) -2.29 ± 0.38; (37 °C) -1.89 ± 0.33.

Take CAGUAGCAAUAUUACGCGCU: the “self-splicing fitness (ln)” value runs as follows: (30 °C) -1.56 ± 0.26; (37 °C) -1.28 ± 0.27.

On to GUGAAGCAAUAUUACGAUCG, for which the “self-splicing fitness (ln)” value runs as follows: (30 °C) -0.499 ± 0.097; (37 °C) 0.218 ± 0.1.

Consider GAAAAGCAAUAUUACGGCCA, for which the “self-splicing fitness (ln)” value (30 °C) was -1.03 ± 0.16 and the “self-splicing fitness (ln)” value (37 °C) is 0.81 ± 0.21.

On to UUUUAGCAAUAUUACGCGUG, for which the “self-splicing fitness (ln)” value by setting is: (30 °C) -0.683 ± 0.088; (37 °C) -0.0858 ± 0.096.

As for CCUAAGCAAUAUUACGUUAC, the “self-splicing fitness (ln)” value was -4.69 ± 0.36 (30 °C) and -3.03 ± 0.32 (37 °C).

Turning to UGAUAGCAAUAUUACGUUCA, the “self-splicing fitness (ln)” value reads like this: (30 °C) -0.43 ± 0.087; (37 °C) 0.075 ± 0.093.

Take GCCCAGCAAUAUUACGAGUG: the “self-splicing fitness (ln)” value (30 °C) is -1.37 ± 0.076 and the “self-splicing fitness (ln)” value (37 °C) was -0.365 ± 0.085.

As to CGGAAGCAAUAUUACGCAAG, the “self-splicing fitness (ln)” value is -0.584 ± 0.18 (30 °C) and -1.95 ± 0.43 (37 °C).

Consider CAAGAGCAAUAUUACGUUGG, for which the “self-splicing fitness (ln)” value runs as follows: (30 °C) -2.67 ± 0.13; (37 °C) -1.78 ± 0.12.

As for UUAAAGCAAUAUUACGGGUA, the “self-splicing fitness (ln)” value by setting is: (30 °C) -0.431 ± 0.069; (37 °C) 0.283 ± 0.08.

On to UGGGAGCAAUAUUACGGAAA, for which, under “30 °C”, the “self-splicing fitness (ln)” value was -2.04 ± 0.31.

UUGUAGCAAUAUUACGAAAA: the “self-splicing fitness (ln)” value (30 °C) is -1.86 ± 0.17 and the “self-splicing fitness (ln)” value (37 °C) was -0.986 ± 0.19.

Turning to GUUCAGCAAUAUUACGACGU, the “self-splicing fitness (ln)” value came out at 0.000808 ± 0.063 (30 °C) and 0.108 ± 0.08 (37 °C).

As to AUUGAGCAAUAUUACGUUAA, the “self-splicing fitness (ln)” value reads like this: (30 °C) -3.84 ± 0.37; (37 °C) -1.47 ± 0.26.

For GUUCAGCAAUAUUACGGCAC, the “self-splicing fitness (ln)” value is -0.46 ± 0.21 (30 °C) and 0.473 ± 0.24 (37 °C).

In the case of CUCUAGCAAUAUUACGUUUA, the “self-splicing fitness (ln)” value (30 °C) is -3.48 ± 0.25 and the “self-splicing fitness (ln)” value (37 °C) was -3.07 ± 0.29.

On to CCGUAGCAAUAUUACGUUAC, for which the “self-splicing fitness (ln)” value (30 °C) was -4.02 ± 0.32 and the “self-splicing fitness (ln)” value (37 °C) is -2.27 ± 0.42.

In the case of ACGAAGCAAUAUUACGACAG, the “self-splicing fitness (ln)” value was -1.59 ± 0.11 (30 °C) and -0.583 ± 0.13 (37 °C).

For CAUAAGCAAUAUUACGGGAG, the “self-splicing fitness (ln)” value was -1.96 ± 0.097 (30 °C) and -1.14 ± 0.095 (37 °C).

With CAGGAGCAAUAUUACGCUGG, the “self-splicing fitness (ln)” value is -1.96 ± 0.26 (30 °C) and -0.934 ± 0.24 (37 °C).

With GGUAAGCAAUAUUACGCCGC, the “self-splicing fitness (ln)” value reads like this: (30 °C) -3.46 ± 0.43; (37 °C) -1.41 ± 0.27.

In the case of CACCAGCAAUAUUACGGUAG, the “self-splicing fitness (ln)” value was -1.97 ± 0.063 (30 °C) and -1.69 ± 0.09 (37 °C).

For the sequence AGCCAGCAAUAUUACGUCAC, the “self-splicing fitness (ln)” value (37 °C) is -2.15 ± 0.44.

Consider AUUAAGCAAUAUUACGUGGA, for which the “self-splicing fitness (ln)” value (30 °C) was -3.32 ± 0.2 and the “self-splicing fitness (ln)” value (37 °C) was -1.05 ± 0.12.

With AUGAAGCAAUAUUACGUCCG, the “self-splicing fitness (ln)” value is -0.499 ± 0.062 (30 °C) and 0.309 ± 0.086 (37 °C).

For AAGAAGCAAUAUUACGGUAC, the “self-splicing fitness (ln)” value (30 °C) is -2.37 ± 0.19 and the “self-splicing fitness (ln)” value (37 °C) was -2.96 ± 0.33.

Take CAACAGCAAUAUUACGAGGC: the “self-splicing fitness (ln)” value was -3.79 ± 0.36 (30 °C) and -1.77 ± 0.18 (37 °C).

As to UAAUAGCAAUAUUACGCUUC, the “self-splicing fitness (ln)” value (37 °C) is -1.72 ± 0.29.

For ACUAAGCAAUAUUACGUAGA, the “self-splicing fitness (ln)” value reads like this: (30 °C) -3.25 ± 0.12; (37 °C) -1.28 ± 0.1.

Take GUACAGCAAUAUUACGGUUU: the “self-splicing fitness (ln)” value reads like this: (30 °C) -0.599 ± 0.044; (37 °C) -0.0338 ± 0.06.

With ACAUAGCAAUAUUACGUUAC, for the setting “30 °C”, the “self-splicing fitness (ln)” value is -1.52 ± 0.22.

On to CUGGAGCAAUAUUACGAUUG, for which the “self-splicing fitness (ln)” value (30 °C) is -1.87 ± 0.12 and the “self-splicing fitness (ln)” value (37 °C) was determined as 0.00165 ± 0.13.
